These results are taken from patent US6727407 (University of California, dated 2004).

The assay deals with T1, GST-CCA1 (Arabidopsis thaliana, UniProt P92973 1-608).
T1 construct: Immobilized on glutathione-agarose beads; also called pGEX-CCA1 product; not shown: glutathione-S-transferase (GST) of pGEX-3X (Pharmacia)
Kind of assay: GST pull-down of 35S-labeled in vitro translated protein, SDS-PAGE autoradiography. As to the method: CK2 subunits and GBF4 labeled with [^35S]methionine were synthesized by coupled transcription-translation with wheat germ extract (Promega TNT). For in vitro binding, 20 µl of the reactions were added to 200 µl of binding buffer [20 mM Hepes pH 7.6, 100 mM KCl, 10% glycerol, 5 mM EDTA, 0.02% NP40, 1 mM dithiothreitol (DTT), 5 mg/ml bovine serum albumin (BSA)] followed by 10 µl of glutathione-agarose beads with bound GST or GST-CCA1 and incubated at 4° C. The beads were washed with binding buffer, then with binding buffer without BSA. Bound proteins were eluted with 1X SDS-polyacrylamide gel electrophoresis (PAGE) sample buffer and resolved by 12.5% SDS-PAGE. ^35S-labeled bands were detected by autoradiography, and quantitation was performed with a PhosphorImager (Molecular Dynamics).

T1 sequence (P92973 whole entry): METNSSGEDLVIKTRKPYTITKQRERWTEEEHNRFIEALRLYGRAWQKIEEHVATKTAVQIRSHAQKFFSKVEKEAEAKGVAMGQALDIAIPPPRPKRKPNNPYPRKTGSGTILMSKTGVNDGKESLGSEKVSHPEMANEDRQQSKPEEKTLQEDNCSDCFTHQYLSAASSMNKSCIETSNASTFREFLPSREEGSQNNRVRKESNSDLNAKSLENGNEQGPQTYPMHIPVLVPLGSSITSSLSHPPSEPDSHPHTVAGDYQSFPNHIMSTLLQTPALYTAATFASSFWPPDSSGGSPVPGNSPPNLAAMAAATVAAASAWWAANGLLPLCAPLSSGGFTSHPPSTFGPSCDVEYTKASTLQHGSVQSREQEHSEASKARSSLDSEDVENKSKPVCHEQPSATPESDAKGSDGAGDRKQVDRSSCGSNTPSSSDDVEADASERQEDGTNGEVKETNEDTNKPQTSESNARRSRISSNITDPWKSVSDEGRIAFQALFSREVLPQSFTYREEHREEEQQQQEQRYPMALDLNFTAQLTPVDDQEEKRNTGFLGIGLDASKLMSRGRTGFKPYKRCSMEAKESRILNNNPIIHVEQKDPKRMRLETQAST

B1: GBF4, a bZIP transcription factor (35S-labeled, in vitro translated) (other, UniProt P42777 1-270, looked up)
chain: MASFKLMSSSNSDLSRRNSSSASSSPSIRSSHHLRPNPHADHSRISFAYGGGVNDYTFASDSKPFEMAIDVDRSIGDRNSVNNGKSVDDVWKEIVSGEQKTIMMKEEEPEDIMTLEDFLAKAEMDEGASDEIDVKIPTERLNNDGSYTFDFPMQRHSSFQMVEGSMGGGVTRGKRGRVMMEAMDKAAAQRQKRMIKNRESAARSRERKQAYQVELETLAAKLEEENEQLLKEIEESTKERYKKLMEVLIPVDEKPRPPSRPLSRSHSLEW
modifications: [35S]methionine label
notes: Negative control
B1: the binding result was “no binding”.
